This note sets out measurements from patent publication EP4796557A1 (Unovel (Shanghai) Biopharma Co., Ltd., dated 2025).

Positions count from the first letter of the chain named.

For assay [1], the target named is T1, antigen protein TF (UniProt P13726 33-251, limits assumed).
T1 construct: Soluble TF used in ELISA coating and BLI; also called TF protein; Tissue Factor
The assay can be described thus: BLI (Fortebio), antibody on ProA sensor, 1:1 model. A general note: In BLI a coated tip is dipped into the sample, and binding shifts an interference pattern.

For assay [2], the target named is T1, antigen protein TF. The experiment in a line: ELISA, TF coated at 1 µg/mL, HRP-Protein A detection.
For assay [3], the target named is T2, Tissue Factor on MDA-MB-231 cells (UniProt P13726 33-295, limits assumed).
T2 construct: whole, on cells
The assay can be described thus: flow cytometry on MDA-MB-231 cells, Alexa Fluor 488 anti-human IgG.

Usually Kd stands for the free concentration of one partner at which half of the binding sites on the other are occupied at equilibrium, for simple one-to-one binding. Higher therefore signals a looser complex. One may read the koff as the rate constant with which the complex falls apart. A higher koff goes with a short-lived complex. As usually defined, the kon is the second-order rate constant of association. Read a low kon as slower complex formation. By EC50 is commonly meant the concentration giving half of the maximal effect.

T1 sequence (P13726 33-251 limits assumed): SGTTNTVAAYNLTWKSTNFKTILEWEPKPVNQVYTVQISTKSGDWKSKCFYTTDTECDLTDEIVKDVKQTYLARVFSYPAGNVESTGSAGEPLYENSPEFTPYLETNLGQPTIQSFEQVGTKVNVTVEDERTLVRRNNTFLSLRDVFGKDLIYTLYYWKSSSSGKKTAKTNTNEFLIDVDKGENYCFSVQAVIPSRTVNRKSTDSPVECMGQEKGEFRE
T2 sequence (P13726 33-295 limits assumed): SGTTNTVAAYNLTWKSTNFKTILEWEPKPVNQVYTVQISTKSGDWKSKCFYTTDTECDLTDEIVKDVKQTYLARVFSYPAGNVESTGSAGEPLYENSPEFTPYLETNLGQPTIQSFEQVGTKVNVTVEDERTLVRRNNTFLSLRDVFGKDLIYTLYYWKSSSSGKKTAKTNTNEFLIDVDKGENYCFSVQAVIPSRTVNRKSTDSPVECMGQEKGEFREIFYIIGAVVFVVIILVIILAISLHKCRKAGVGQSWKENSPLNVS

B1: h1849-H2L1 (antibody, human IgG1, kappa, V domains shown)
VH: EVQLVESGGGVVQPGRSLRLSCAASGFTFSDYNMAWIRQAPGKGLEWVAAIIYDGTRTYYRDSVKGRFTISRDNSKSTLYLQMDSLRAEDTAVYYCATGDSYTNFAYWGQGTLVTVSS
VL: EIVLTQSPTFLSASVGDRVTITCRASSSLSYMHWYQQKPGTSPKLLIYETSKLQSGVPSRFSGSGSGTSFTLTIDSLQPEDFATYYCQQGNSYPRTFGGGTKVEIKR
notes: also called humanized anti-TF antibody
In the assay with antigen protein TF [1], B1 displayed a Kd of 0.43 nM, a dissociation rate constant (koff) of 0.000169 s⁻¹ and a kon of 392000 M⁻¹ s⁻¹. This molecule returned an EC50 with antigen protein TF [2] of 0.0155 µg/mL. Further, in assay [3], the EC50 turned out to be 1.13 µg/mL.

B2: h1849-H3L3 (antibody, human IgG1, kappa, V domains shown)
VH: B1 VH with D84N
VL: B1 VL with F10S, Q54E, S69D
notes: as for B1
Take B2: in the assay with antigen protein TF [1], the koff was < 1e-07 s⁻¹ and the on-rate (kon) amounted to 324000 M⁻¹ s⁻¹. This molecule also displayed a concentration for a half-maximal effect (EC50) with antigen protein TF [2] of 0.0191 µg/mL. The same molecule yielded a 50% effective concentration (EC50) in assay [3] of 2.3 µg/mL.
